Reference: patent publication US20140271457A1 (AbbVie / Abbott, published 2014)
Positions count from the first letter of the chain named.

B1: DVD3104 (bispecific antibody, IgG1)
VH: EVQLVQSGAEVKKPGASVKVSCKASGYTFANYGIIWVRQAPGQGLEWMGWINTYTGKPTYAQKFQGRVTMTTDTSTSTAYMELSSLRSEDTAVYYCARKLFTTMDVTDNAMDYWGQGTTVTVSSASTKGPEVQLVESGGGLVQPGGSLRLSCAASGFTFSNYGVTWVRQAPGKGLEWVSMIWADGSTHYASSVKGRFTISRDNSKNTLYLQMNSLRAEDTAVYYCAREWQHGPVAYWGQGTLVTVSS
VL: DIQMTQSPSSLSASVGDRVTITCRASQDISQYLNWYQQKPGKAPKLLIYYTSRLQSGVPSRFSGSGSGTDFTLTISSLQPEDFATYFCQQGNTWPPTFGQGTKLEIKRTVAAPDIQMTQSPSSLSASVGDRVTITCRASQLVSSAVAWYQQKPGKAPKLLIYWASARHTGVPSRFSGSGSGTDFTLTISSLQPEDFATYYCQQHYKTPFTFGQGTKLEIKR
B2: DVD3117 (bispecific antibody, IgG1)
VH: EVQLVQSGAEVKKPGASVKVSCKASGYTFNNYGIIWVRQAPGQGLEWMGWINTYTGKPTYAQKFQGRVTMTTDTSTSTAYMELSSLRSEDTAVYYCARKLFNTVAVTDNAMDYWGQGTTVTVSSASTKGPSVFPLAPEVQLVESGGGLVQPGGSLRLSCAASGFTFSNYGVTWVRQAPGKGLEWVSMIWADGSTHYASSVKGRFTISRDNSKNTLYLQMNSLRAEDTAVYYCAREWQHGPVAYWGQGTLVTVSS
VL: B1 VL with S30E, Q31N, W94Q
B3: DVD3109 (bispecific antibody, IgG1)
VH: EVQLVQSGAEVKKPGASVKVSCKASGYTFTTYGVSWVRQAPGQGLEWMGEIYPGNYNTYYNEKFRGRVTMTTDTSTSTAYMELRSLRSDDTAVYYCARWRTSYFSDYGYFDYWGQGTTVTVSSASTKGPEVQLVQSGAEVKKPGASVKVSCKASGYTFANYGIIWVRQAPGQGLEWMGWINTYTGKPTYAQKFQGRVTMTTDTSTSTAYMELSSLRSEDTAVYYCARKLFTTMDVTDNAMDYWGQGTTVTVSS
VL: DVVMTQSPLSLPVTLGQPASISCRSSQSLVHSHGNTYLHWYQQRPGQSPRLLIYTVSNRFSGVPDRFSGSGSGTDFTLKISRVEAEDVGVYYCSQSTHVPYTFGGGTKVEIKRTVAAPDIQMTQSPSSLSASVGDRVTITCRASQDISQYLNWYQQKPGKAPKLLIYYTSRLQSGVPSRFSGSGSGTDFTLTISSLQPEDFATYFCQQGNTWPPTFGQGTKLEIKR
B4: DVD3112 (bispecific antibody, IgG1)
VH: EVQLVQSGAEVKKPGASVKVSCKASGYTFTTYGVSWVRQAPGQGLEWMGEIYPGNYNTYYNEKFRGRVTMTTDTSTSTAYMELRSLRSDDTAVYYCARWRTSYFSDYGYFDYWGQGTTVTVSSASTKGPSVFPLAPEVQLVQSGAEVKKPGASVKVSCKASGYTFANYGIIWVRQAPGQGLEWMGWINTYTGKPTYAQKFQGRVTMTTDTSTSTAYMELSSLRSEDTAVYYCARKLFTTMDVTDNAMDYWGQGTTVTVSS
VL: B3 VL
B5: DVD3111 (bispecific antibody, IgG1)
VH: B3 VH
VL: DVVMTQSPLSLPVTLGQPASISCRSSQSLVHSHGNTYLHWYQQRPGQSPRLLIYTVSNRFSGVPDRFSGSGSGTDFTLKISRVEAEDVGVYYCSQSTHVPYTFGGGTKVEIKRTVAAPSVFIFPPDIQMTQSPSSLSASVGDRVTITCRASQDISQYLNWYQQKPGKAPKLLIYYTSRLQSGVPSRFSGSGSGTDFTLTISSLQPEDFATYFCQQGNTWPPTFGQGTKLEIKR
B6: DVD3098 (bispecific antibody, IgG1)
VH: EVQLVQSGAEVKKPGASVKVSCKASGYTFTTYGVSWVRQAPGQGLEWMGEIYPGNYNTYYNEKFRGRVTMTTDTSTSTAYMELRSLRSDDTAVYYCARWRTSYFSDYGYFDYWGQGTTVTVSSGGGGSGGGGSEVQLVESGGGLVQPGGSLRLSCAASGFTFSNYGVEWVRQAPGKGLEWVSGIWADGSTHYADTVKSRFTISRDNSKNTLYLQMNSLRAEDTAVYYCAREWQHGPVAYWGQGTLVTVSS
VL: DVVMTQSPLSLPVTLGQPASISCRSSQSLVHSHGNTYLHWYQQRPGQSPRLLIYTVSNRFSGVPDRFSGSGSGTDFTLKISRVEAEDVGVYYCSQSTHVPYTFGGGTKVEIKRGGSGGGGSGDIQMTQSPSSLSASVGDRVTITCKASQLVSSAVAWYQQKPGKAPKLLIYWASTLHTGVPSRFSGSGSGTDFTLTISSLQPEDFATYYCQQHYRTPFTFGQGTKLEIKR
B7: DVD3108 (bispecific antibody, IgG1)
VH: EVQLVQSGAEVKKPGASVKVSCKASGYTFTTYGVSWVRQAPGQGLEWMGEIYPGNYNTYYNEKFRGRVTMTTDTSTSTAYMELRSLRSDDTAVYYCARWRTSYFSDYGYFDYWGQGTTVTVSSGGGGSGGGGSEVQLVQSGAEVKKPGASVKVSCKASGYTFANYGIIWVRQAPGQGLEWMGWINTYTGKPTYAQKFQGRVTMTTDTSTSTAYMELSSLRSEDTAVYYCARKLFTTMDVTDNAMDYWGQGTTVTVSS
VL: DVVMTQSPLSLPVTLGQPASISCRSSQSLVHSHGNTYLHWYQQRPGQSPRLLIYTVSNRFSGVPDRFSGSGSGTDFTLKISRVEAEDVGVYYCSQSTHVPYTFGGGTKVEIKRGGSGGGGSGDIQMTQSPSSLSASVGDRVTITCRASQDISQYLNWYQQKPGKAPKLLIYYTSRLQSGVPSRFSGSGSGTDFTLTISSLQPEDFATYFCQQGNTWPPTFGQGTKLEIKR
B8: DVD3089 (bispecific antibody, IgG1)
VH: EVQLVQSGAEVKKPGASVKVSCKASGYTFTTYGVSWVRQAPGQGLEWMGEIYPGNYNTYYNEKFRGRVTMTTDTSTSTAYMELRSLRSDDTAVYYCARWRTSYFSDYGYFDYWGQGTTVTVSSASTKGPEVQLVESGGGLVQPGGSLRLSCAASGFTFSNYGVTWVRQAPGKGLEWVSMIWADGSTHYASSVKGRFTISRDNSKNTLYLQMNSLRAEDTAVYYCAREWQHGPVAYWGQGTLVTVSS
VL: DVVMTQSPLSLPVTLGQPASISCRSSQSLVHSHGNTYLHWYQQRPGQSPRLLIYTVSNRFSGVPDRFSGSGSGTDFTLKISRVEAEDVGVYYCSQSTHVPYTFGGGTKVEIKRTVAAPDIQMTQSPSSLSASVGDRVTITCRASQLVSSAVAWYQQKPGKAPKLLIYWASARHTGVPSRFSGSGSGTDFTLTISSLQPEDFATYYCQQHYKTPFTFGQGTKLEIKR
B9: DVD3102 (bispecific antibody, IgG1)
VH: EVQLVQSGAEVKKPGASVKVSCKASGYTFTTYGVSWVRQAPGQGLEWMGEIYPGNYNTYYNEKFRGRVTMTTDTSTSTAYMELRSLRSDDTAVYYCARWRTSYFSDYGYFDYWGQGTTVTVSSASTKGPSVFPLAPEVQLVESGGGLVQPGGSLRLSCAASGFTFSNYGVEWVRQAPGKGLEWVSGIWADGSTHYADTVKSRFTISRDNSKNTLYLQMNSLRAEDTAVYYCAREWQHGPVAYWGQGTLVTVSS
VL: B8 VL with R142K, A171T, R172L, K211R
B10: DVD3099 (bispecific antibody, IgG1)
VH: B8 VH with T164E, M179G, S190D, S191T, G194S
VL: B8 VL with R142K, A171T, R172L, K211R
B11: DVD3091 (bispecific antibody, IgG1)
VH: B8 VH
VL: DVVMTQSPLSLPVTLGQPASISCRSSQSLVHSHGNTYLHWYQQRPGQSPRLLIYTVSNRFSGVPDRFSGSGSGTDFTLKISRVEAEDVGVYYCSQSTHVPYTFGGGTKVEIKRTVAAPSVFIFPPDIQMTQSPSSLSASVGDRVTITCRASQLVSSAVAWYQQKPGKAPKLLIYWASARHTGVPSRFSGSGSGTDFTLTISSLQPEDFATYYCQQHYKTPFTFGQGTKLEIKR
B12: DVD3101 (bispecific antibody, IgG1)
VH: B8 VH with T164E, M179G, S190D, S191T, G194S
VL: B11 VL with R149K, A178T, R179L, K218R
B13: DVD3103 (bispecific antibody, IgG1)
VH: EVQLVQSGAEVKKPGASVKVSCKASGYTFANYGIIWVRQAPGQGLEWMGWINTYTGKPTYAQKFQGRVTMTTDTSTSTAYMELSSLRSEDTAVYYCARKLFTTMDVTDNAMDYWGQGTTVTVSSGGGGSGGGGSEVQLVESGGGLVQPGGSLRLSCAASGFTFSNYGVTWVRQAPGKGLEWVSMIWADGSTHYASSVKGRFTISRDNSKNTLYLQMNSLRAEDTAVYYCAREWQHGPVAYWGQGTLVTVSS
VL: DIQMTQSPSSLSASVGDRVTITCRASQDISQYLNWYQQKPGKAPKLLIYYTSRLQSGVPSRFSGSGSGTDFTLTISSLQPEDFATYFCQQGNTWPPTFGQGTKLEIKRGGSGGGGSGDIQMTQSPSSLSASVGDRVTITCRASQLVSSAVAWYQQKPGKAPKLLIYWASARHTGVPSRFSGSGSGTDFTLTISSLQPEDFATYYCQQHYKTPFTFGQGTKLEIKR

Each binder was assayed against Recombinant Human TNF-α/TNFSF1A (human, UniProt P01375 77-233) (assay: cell-based or functional assay).
Chain of Recombinant Human TNF-α/TNFSF1A (P01375 77-233 limits assumed): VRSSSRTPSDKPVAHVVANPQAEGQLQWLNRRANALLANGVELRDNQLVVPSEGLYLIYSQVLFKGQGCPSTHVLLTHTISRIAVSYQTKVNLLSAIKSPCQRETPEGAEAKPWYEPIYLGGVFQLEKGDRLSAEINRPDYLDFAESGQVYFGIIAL

**Q.** Which “N-Terminal VD huTNFα Neutralization Assay IC50” value does the source give for B1 here?
**A.** The value was 0.033 nM.

**Q.** B2 was tested. Which “N-Terminal VD huTNFα Neutralization Assay IC50” value did it give?
**A.** Its value is 1.96 nM.

**Q.** For B3, which “C-Terminal VD huTNFα Neutralization Assay IC50” value is on record?
**A.** Its value is 0.731 nM.

**Q.** With B4 as the binder, how does the “C-Terminal VD huTNFα Neutralization Assay IC50” value read?
**A.** Its value is 0.387 nM.

**Q.** With B5 as the binder, how does the “C-Terminal VD huTNFα Neutralization Assay IC50” value read?
**A.** Its value is 0.146 nM.

**Q.** Which “N-Terminal VD huTNFα Neutralization Assay IC50” value does the source give for B6 here?
**A.** The value was 0.012 nM.

**Q.** Which “C-Terminal VD huTNFα Neutralization Assay IC50” value does the source give for B7 here?
**A.** Its value is 0.183 nM.

**Q.** B8 was tested. Which “C-Terminal VD huTNFα Neutralization Assay IC50” value did it give?
**A.** Its value is 0.52 nM.

**Q.** How did the “C-Terminal VD huTNFα Neutralization Assay IC50” value turn out when B9 was run?
**A.** The value was 0.294 nM.

**Q.** With B10 as the binder, how does the “N-Terminal VD huTNFα Neutralization Assay IC50” value read?
**A.** The value was 0.003 nM.

**Q.** Which “C-Terminal VD huTNFα Neutralization Assay IC50” value does the source give for B11 here?
**A.** The value was 0.192 nM.

**Q.** Which “C-Terminal VD huTNFα Neutralization Assay IC50” value does the source give for B12 here?
**A.** Its value is 0.308 nM.

**Q.** How did the “N-Terminal VD huTNFα Neutralization Assay IC50” value turn out when B13 was run?
**A.** The value was 0.016 nM.
